The values below come from patent publication US20200299408A1.

Usually Kd stands for the free concentration of one partner at which half of the binding sites on the other are occupied at equilibrium, for simple one-to-one binding. Higher therefore signals weaker binding. What is called koff is a measure of how fast the partners let go of each other. The low end stands for a long-lived complex, the high end for a short-lived complex. What is called kon is a measure of how fast the partners come together.

Where a chain is given by its changes, count along the chain named. In names and notes the source's numbering stands.

Test [1] addresses CD3 antigen of Figures 3B and 3C (not named). The test is described as follows: kinetic table of IgGs; method and antigen not stated.
Test [2] addresses commercial CD3ε. The test can be described thus: binding affinity on commercial CD3ε (Creative Biomart CD3E-2194H); method not given.
Test [3] addresses hCD3ε1-27-Fc. The test can be described thus: monovalent binding affinity (p-1384), method not stated on the sheet.
Test [4] has as its target human CD3 on T cells (human) (UniProt P07766). The test is described as follows: Biacore, monovalent KD of the CD3 arm; form of the CD3 antigen not stated on the sheet [panel B]. For orientation: Surface plasmon resonance follows binding to a sensor surface in real time, without labels.

commercial CD3ε, sequence (P07766 22-126): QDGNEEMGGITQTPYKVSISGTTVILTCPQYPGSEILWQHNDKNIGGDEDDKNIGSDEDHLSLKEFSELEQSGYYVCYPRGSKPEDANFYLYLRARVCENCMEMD
hCD3ε1-27-Fc, sequence (fusion chain, as listed by the source): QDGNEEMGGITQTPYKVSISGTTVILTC
human CD3 on T cells (human), sequence (P07766 22-207 limits assumed): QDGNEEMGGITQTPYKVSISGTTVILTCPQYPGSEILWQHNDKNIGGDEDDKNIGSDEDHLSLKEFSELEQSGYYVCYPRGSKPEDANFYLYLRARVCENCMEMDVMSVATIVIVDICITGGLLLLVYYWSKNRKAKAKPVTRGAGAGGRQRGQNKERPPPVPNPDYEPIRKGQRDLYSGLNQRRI

B1: 14C7 (antibody, V domains shown)
VH: EVQLQQSGPELVKPGTSVKISCKASGFSFTNYYIHWMKQRPGQGLEWIGWIYPGSDNTKFNDKFKGKATLTADTSSTTAYMQLSSLTSEDSAVYYCARDSITNYYFDYWGQGTTLTVSS
VL: DVVMTQTPSSLAVSTGEKVTMTCKSSQSLLNIRTRKNCLAWYQQKPGQSPKLLIFWASTRYSGVPDRFTGSGSGTDFTLTIRSVQPEDLAVYYCTQSYTLRTFGGGTKLEIK
In test [1], B1 showed a Kd of 0.228 nM, a koff of 3.79e-05 s⁻¹ and an on-rate (kon) of 166000 M⁻¹ s⁻¹.

B2: humanized 30A1: VH3 graft + A24V / K4 graft (antibody, V domains shown)
VH: EVQLVESGGGLVQPGGSLRLSCAVSGFSLTNYAIHWVRQAPGKGLEWVGVIWAGGNTKYNSALMSRFTISRDNSKNTLYLQMNSLRAEDTAVYYCAREDSSGYVALDYWGQGTLVTVSS
VL: DIVMTQSPDSLAVSLGERATINCKSSQSLLSGRTRKNYLAWYQQKPGQPPKLLIYWASTRESGVPDRFSGSGSGTDFTLTISSLQAEDVAVYYCKQSYYLLTFGQGTKVEIK
As for B2, the Kd in test [2] turned out to be 1.7 nM. This counts as single-digit nanomolar.

B3: hu38E4.v1 Fab (Fab, V domains shown)
VH: EVQLVQSGAEVKKPGASVKVSCKASGFTFTSYYIHWVRQAPGQGLEWIGWIYPENDNTKYNEKFKDRVTITADTSTSTAYLELSSLRSEDTAVYYCARDGYSRYYFDYWGQGTLVTVSS
VL: B2 VL with S31N, G32S, P49S, A57T, E61K, Y98F, Y99I, L101R
With B3, the dissociation constant (Kd) in test [3] worked out at 1 nM.

B4: 38E4v1 (bispecific antibody, part only; not given: anti-HER2 arm and constant regions, V domains shown, not shown: another chain or arm of the molecule; a dimerising Fc or GST)
VH: B3 VH
VL: B2 VL with S31N, G32S, P49S, A57T, E61K, Y98F, Y99I, L101R
Molecule B4 came in with a Kd in test [4] of 1.3 nM.

B5: muSP34 (antibody, V domains shown)
VH: EVQLVESGGGLVQPKGSLKLSCAASGFTFNTYAMNWVRQAPGKGLEWVARIRSKYNNYATYYADSVKDRFTISRDDSQSILYLQMNNLKTEDTAMYYCVRHGNFGNSYVSWFAYWGQGTLVTVSS
VL: QAVVTQESALTTSPGETVTLTCRSSTGAVTTSNYANWVQEKPDHLFTGLIGGTNKRAPGVPARFSGSLIGDKAALTITGAQTEDEAIYFCALWYSNLWVFGGGTKLTVL
Turning to B5, in test [1], the Kd was determined as 0.249 nM, the koff came out at 4e-05 s⁻¹ and the on-rate constant (kon) amounted to 161000 M⁻¹ s⁻¹.

B6: SP34v52 Fab (Fab, V domains shown)
VH: B5 VH with K15G, K19R, Q78K, S79N, I80T, N87S, K89R, T90A, M95V
VL: EAVVTQEPSLTVSPGGTVTLTCRSSTGAVTTSNYANWVQQKPGQAPRGLIGGTNKRAPWTPARFSGSLLGGKAALTLSGAQPEDEAEYYCALWYSNLWVFGGGTKLTVL
In test [3], B6 displayed a Kd of 11 nM.

B7: 18F12 (antibody, V domains shown)
VH: QVQLQQSGPELVKPGASVKISCKASGYSFTNYYMHWVKQRPGQGLEWIGWISPGSGSIKYNEKFKGKATLTADTSSSTAYMQLSSLTSEDSAVYYCARDGYSLYFFDFWGQGTTLTVSS
VL: DIVMTQSPSSLAVSAGEKVTMTCKSSQSLLNSRTRKNYLAWYQQKPGQSPKLLIYWASTRESGVPDRFTGSGSGTDFTLTISSVQAEDLAVYYCKQSFILRTFGGGTKLELK
As for B7, in test [1], the equilibrium dissociation constant (Kd) is 0.119 nM, the dissociation rate constant (koff) was 1.59e-05 s⁻¹ and the kon is 134000 M⁻¹ s⁻¹.

B8: 27H5-1 (antibody, V domains shown)
VH: QVQLQQSGPELVKPGTSVKISCKTSGYSFINYYTHWVKQRPGQGLEWIGWIYPGNGNIKYNEKFMGKATLTADTSSTTAHMHLSSLVSEDSAVYYCARDSYGSYYFDYWGQGTTLTVSS
VL: B7 VL with A15V, T22S, D66V, K95T, L111I
In test [1], B8 had a Kd of 0.492 nM, a dissociation rate constant (koff) of 0.000115 s⁻¹ and an on-rate constant (kon) of 234000 M⁻¹ s⁻¹.

B9: murine 30A1 (antibody, V domains shown)
VH: QVQLKESGPGLVAPSQSLSITCTVSGFSLTNYAIHWVRQPPGKGLDWLGVIWAGGNTKYNSALMSRLSFSKDNSKSQVFLEINSLQTDDTAMYYCAREDSSGYVALDYWGQGTSVTVSS
VL: B7 VL with D1N, T22S, N31S, S32G, F98Y, I99Y, R101L, G105A
Regarding B9, in test [2], the equilibrium dissociation constant (Kd) worked out at 0.4 nM.

B10: murine 13A3 (antibody, V domains shown)
VH: EVQLQQSGPELVKPGASVRISCKASGYTFTSYYIHWMKQRPGQGLEWIGWIYPGNVNTKYNEKFKGKATLTADNSSSTANMQLSSLTSEDSAVYFCARNHDYYFDYWGQGTTLTVSS
VL: B7 VL with M4L, T22S, F98Y, L111I
B10 returned a dissociation constant (Kd) in test [2] of 0.7 nM.
